{
  "source": "patent US11505783B2",
  "about": "“Differentiation of human embryonic stem cells” (Janssen Biotech, Inc., priority 2007, dated 2022)",
  "molecules": {"B1": {"name": "Chordin: known inhibitor of BMP signaling (R&D Systems) (protein, UniProt Q9H2X0 27-955, looked up)", "Chordin": "AGPEPPVLPIRSEKEPLPVRGAAGCTFGGKVYALDETWHPDLGEPFGVMRCVLCACEAPQWGRRTRGPGRVSCKNIKPECPTPACGQPRQLPGHCCQTCPQERSSSERQPSGLSFEYPRDPEHRSYSDRGEPGAEERARGDGHTDFVALLTGPRSQAVARARVSLLRSSLRFSISYRRLDRPTRIRFSDSNGSVLFEHPAAPTQDGLVCGVWRAVPRLSLRLLRAEQLHVALVTLTHPSGEVWGPLIRHRALAAETFSAILTLEGPPQQGVGGITLLTLSDTEDSLHFLLLFRGLLEPRSGGLTQVPLRLQILHQGQLLRELQANVSAQEPGFAEVLPNLTVQEMDWLVLGELQMALEWAGRPGLRISGHIAARKSCDVLQSVLCGADALIPVQTGAAGSASLTLLGNGSLIYQVQVVGTSSEVVAMTLETKPQRRDQRTVLCHMAGLQPGGHTAVGICPGLGARGAHMLLQNELFLNVGTKDFPDGELRGHVAALPYCGHSARHDTLPVPLAGALVLPPVKSQAAGHAWLSLDTHCHLHYEVLLAGLGGSEQGTVTAHLLGPPGTPGPRRLLKGFYGSEAQGVVKDLEPELLRHLAKGMASLMITTKGSPRGELRGQVHIANQCEVGGLRLEAAGAEGVRALGAPDTASAAPPVVPGLPALAPAKPGGPGRPRDPNTCFFEGQQRPHGARWAPNYDPLCSLCTCQRRTVICDPVVCPPPSCPHPVQAPDQCCPVCPEKQDVRDLPGLPRSRDPGEGCYFDGDRSWRAAGTRWHPVVPPFGLIKCAVCTCKGGTGEVHCEKVQCPRLACAQPVRVNPTDCCKQCPVGSGAHPQLGDPMQADGPRGCRFAGQWFPESQSWHPSVPPFGEMSCITCRCGAGVPHCERDDCSLPLSCGSGKESRCCSRCTAHRRPAPETRTDPELEKEAEGS"}},
  "test_system": "human embryonic stem cell line H1",
  "test": "FACS analysis of insulin and synaptophysin in stage 6 cultures, Chordin instead of Noggin (Example 15)",
  "assay_type": "cell-based",
  "settings": "50-100 ng/ml at stages 3-4 instead of Noggin, compared with Noggin",
  "description": "Cells were dissociated into single cells from monolayer cultures using TrypLE Express (Invitrogen, Carlsbad, Calif.) and washed in cold PBS. For fixation, cells were resuspended in 200-300 μl Cytofix/Cytoperm Buffer (BD 554722, BD, Ca) and incubated for 30 min at 4° C. Cells were washed two times in 1 ml Perm/Wash Buffer Solution (BD 554723) and resuspended in 100 μl staining/blocking solution containing 2% normal goat serum in Perm/Wash buffer. For flow cytometric analysis, cells were stained with the following primary antibodies: Anti-Insulin (Rabbit mAb, Cell Signaling No. C27C9; 1:100 dilution), Anti-Glucagon (Mouse Mab, Sigma No. G2654, 1:100); Anti-Synaptophysin (Rabbit Polyclonal antibody, DakoCytomation No A0010, 1:50); Cells were incubated for 30 min at 4° C. followed by two washes in Perm/Wash buffer and further 30 min incubation in appropriate secondary antibodies as follows: Goat anti-Rabbit Alexa 647 (Invitrogen No. A21246) or Goat anti-Mouse 647 (Invitrogen No. A21235); Goat anti-Rabbit R-PE (BioSource No. ALI4407). All secondary antibodies were used at 1:200 dilution. Cells were washed at least once in Perm/Wash buffer and analyzed using BD FACSArray. A least 10,000 events were acquired for analysis. Controls included undifferentiated H1 cells and b-TC (ATCC, VA) cell line. FIGS. 20A-20C show the percentage insulin positive and synapthophysin+ cells in stage 6 cultures. […]",
  "data": [
    {"molecule": "B1", "values": [
      {"measurement": "expression of insulin and synaptophysin by FACS", "result": "very similar expression"}
    ]}
  ]
}
